# Legend:
# Assay in all cases: Kinetic characterization (Km and kcat/Km of probe hydrolysis)
# Assay type in all cases: biochemical
# Conditions in all cases: other: caspase-1 added to increasing probe concentrations; initial velocities; nonlinear regression
# [1] = substrate: CCN(CC)c1ccc2cc(C(=O)NNC(=O)[C@H](CC(=O)O)NC(=O)[C@@H]3CCCN4C(=O)CC[C@H](NC(=O)c5cc6cc(Br)c(O)cc6oc5=O)C(=O)N34)c(=O)oc2c1
# Experimental: (§1) Km and kcat/Km values were determined using standard methods (Kindermann et al., 2010; Rozman Pungercar et al., 2003). Caspase-1 was added to increasing concentrations of the probe and initial velocities of probe hydrolysis were calculated from the slopes of the lines of the fluorescence increase. Km and kcat (Vmax) values were then determined by nonlinear regression analysis using the Prism program.
# [2] = substrate: CCN(CC)c1ccc2cc(C(=O)NNC(=O)[C@H](CC(=O)O)NC(=O)[C@@H]3CCCN4C(=O)CC[C@H](NC(=O)c5cc6ccc(O)cc6oc5=O)C(=O)N34)c(=O)oc2c1
# Experimental: as §1
# [3] = substrate: CCN(CC)c1ccc2cc(C(=O)NNC(=O)[C@H](CC(=O)O)NC(=O)[C@@H]3CCCN4C(=O)CC[C@H](NC(=O)c5cc6ccc(OC)cc6oc5=O)C(=O)N34)c(=O)oc2c1
# Experimental: as §1
protein,measurement,setting,value
Caspase-1 (Homo sapiens) (protein) chain 1: NPAMPTSSGSEGNVKLCSLEEAQRIWKQKSAEIYPIMDKSSRTRLALIICNEEFDSIPRRTGAEVDITGMTMLLQNLGYSVDVKKNLTASDMTTELEAFAHRPEHKTSDSTFLVFMSHGIREGICGKKHSEQVPDILQLNAIFNMLNTKNCPSLKDKPKVIIIQACRGDSPGVVWFKD chain 2: AIKKAHIEKDFIAFCSSTPDNVSWRHPTMGSVFIGRLIEHMQEYACSCDVEEIFRKVRFSFEQPDGRAQMPTTERVTLTRCFYLFPGH,Km,[1],5.9 µM µM
same,Km,[2],6.5 µM µM
same,Km,[3],4.2 µM µM

# Source: patent EP2848696A1, “Caspase-1 imaging probes” (Sanofi-Aventis Deutschland GmbH, priority 2013, dated 2015)
